In IntAct's records for PubMed 29039417:

B1: BBSome complex member BBS2 (Homo sapiens), Q9BXC9 (parent)
chain: MLLPVFTLKLRHKISPRMVAIGRYDGTHPCLAAATQTGKVFIHNPHTRNQHVSASRVFQSPLESDVSLLSINQAVSCLTAGVLNPELGYDALLVGTQTNLLAYDVYNNSDLFYREVADGANAIVLGTLGDISSPLAIIGGNCALQGFNHEGSDLFWTVTGDNVNSLALCDFDGDGKKELLVGSEDFDIRVFKEDEIVAEMTETEIVTSLCPMYGSRFGYALSNGTVGVYDKTSRYWRIKSKNHAMSIHAFDLNSDGVNELITGWSNGKVDARSDRTGEVIFKDNFSSAIAGVVEGDYRMDGHIQLICCSVDGEIRGYLPGTAEMRGNLMDTSAEQDLIRELSQKKQNLLLELRNYEENAKAELASPLNEADGHRGIIPANTRLHTTLSVSLGNETQTAHTELRISTSNDTIIRAVLIFAEGIFTGESHVVHPSIHNLSSSICIPIVPPKDVPVDLHLKAFVGYRSSTQFHVFESTRQLPRFSMYALTSLDPASEPISYVNFTIAERAQRVVVWLGQNFLLPEDTHIQNAPFQVCFTSLRNGGHLHIKIKLSGEITINTDDIDLAGDIIQSMASFFAIEDLQVEADFPVYFEELRKVLVKVDEYHSVHQKLSADMADHSNLIRSLLVGAEDARLMRDMKTMKSRYMELYDLNRDLLNGYKIRCNNHTELLGNLKAVNQAIQRAGRLRVGKPKNQVITACRDAIRSNNINTLFKIMRVGTASS
partner: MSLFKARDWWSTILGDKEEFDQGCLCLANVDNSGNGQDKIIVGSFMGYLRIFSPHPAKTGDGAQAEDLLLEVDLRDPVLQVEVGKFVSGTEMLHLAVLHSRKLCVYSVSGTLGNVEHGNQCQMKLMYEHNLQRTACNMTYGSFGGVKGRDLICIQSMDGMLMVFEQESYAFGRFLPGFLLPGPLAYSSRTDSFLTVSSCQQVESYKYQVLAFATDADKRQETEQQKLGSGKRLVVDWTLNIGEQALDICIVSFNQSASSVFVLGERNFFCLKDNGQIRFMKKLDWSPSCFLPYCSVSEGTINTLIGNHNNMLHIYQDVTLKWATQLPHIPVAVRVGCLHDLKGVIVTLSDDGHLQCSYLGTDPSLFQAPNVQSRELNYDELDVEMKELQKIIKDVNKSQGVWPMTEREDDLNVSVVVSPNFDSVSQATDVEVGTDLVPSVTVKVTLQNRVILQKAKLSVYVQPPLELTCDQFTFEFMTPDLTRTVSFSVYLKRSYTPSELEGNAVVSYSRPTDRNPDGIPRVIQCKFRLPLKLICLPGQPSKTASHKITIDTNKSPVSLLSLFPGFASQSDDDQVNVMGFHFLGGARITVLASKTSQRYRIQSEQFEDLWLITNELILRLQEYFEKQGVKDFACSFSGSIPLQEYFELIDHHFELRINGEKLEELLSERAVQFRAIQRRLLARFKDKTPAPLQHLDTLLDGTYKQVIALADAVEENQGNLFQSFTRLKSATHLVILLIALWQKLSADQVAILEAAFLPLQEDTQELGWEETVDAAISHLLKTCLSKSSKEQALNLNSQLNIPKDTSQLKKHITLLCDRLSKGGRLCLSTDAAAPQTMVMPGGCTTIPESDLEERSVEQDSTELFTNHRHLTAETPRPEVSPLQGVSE

Variants of: B1
Details: with pthb1_human BBS9, Q3SYG4

effect of a mutation on the interaction | Variant
with no effect | V606A
with no effect | V606K
with no effect | V606E
with no effect | D613K
with no effect | D613A
with no effect | D613E
with no effect | N619E
with no effect | N619K
with no effect | N619A
with no effect | H607A
with no effect | H607E
with no effect | H607K
with no effect | L610K
with no effect | L610A
with no effect | L610E
with no effect | H604E
with no effect | H604K
with no effect | H604A
with no effect | M614E
with no effect | M614A
with no effect | M614K

effect of a mutation on the interaction | Variant
with no effect | L624A
with no effect | L624E
with no effect | S623A
with no effect | S623K
with no effect | S623E
with no effect | A612K
with no effect | A612E
with no effect | I621K
with no effect | I621A
with no effect | I621E
with no effect | Q608K
with no effect | Q608E
with no effect | Q608A
with no effect | S605K
with no effect | S605E
with no effect | S605A
with no effect | D616K
with no effect | D616A
with no effect | D616E
with no effect | A615E
with no effect | A615K

effect of a mutation on the interaction | Variant
with no effect | H617E
with no effect | H617A
with no effect | H617K
with no effect | L620K
with no effect | L620A
with no effect | L620E
with no effect | R622A
with no effect | R622K
with no effect | R622E
with no effect | S611E
with no effect | S611A
with no effect | S611K
with no effect | K609A
with no effect | K609E
with no effect | Y603A
with no effect | Y603E
with no effect | Y603K
with no effect | S618E
with no effect | S618K
with no effect | S618A

The next lines start with the variant.

Variant | effect of a mutation on the interaction
D585K | with no effect
D585A | with no effect
D585E | with no effect
S570E | with no effect
S570A | with no effect
S570L | disrupting interaction strength
S570K | with no effect
I561A | with no effect
I561K | with no effect
I561E | with no effect
I561F | disrupting interaction strength
A584E | with no effect
A584K | with no effect
E583K | with no effect
E583A | with no effect
I568K | with no effect
I568A | with no effect
V582A | with no effect
V582K | with no effect
V582E | with no effect
F575A | with no effect
F575K | with no effect
F575E | with no effect
A572E | with no effect
A572K | with no effect

Variant | effect of a mutation on the interaction
F574A | with no effect
F574E | with no effect
F574K | with no effect
L563E | with no effect
L563K | with no effect
L563A | with no effect
A564E | with no effect
A564K | with no effect
I567E | with no effect
I567A | with no effect
I567K | with no effect
M571A | with no effect
M571K | with no effect
M571E | with no effect
L593K | with no effect
L593A | with no effect
L593E | with no effect
D560K | with no effect
D560E | with no effect
D560A | disrupting interaction strength
E578A | with no effect
E578K | with no effect
K599E | with no effect
K599A | with no effect
L580A | with no effect

Variant | effect of a mutation on the interaction
L580K | with no effect
L580E | with no effect
E592K | with no effect
E592A | with no effect
D601A | with no effect
D601E | with no effect
D601K | with no effect
A576K | with no effect
A576E | with no effect
L597E | with no effect
L597K | with no effect
L597A | with no effect
D559E | with no effect
D559A | with no effect
D559K | with no effect
E591A | with no effect
E591K | with no effect
D579E | with no effect
D579K | with no effect
D579A | with no effect
Y589E | with no effect
Y589A | with no effect
Y589K | with no effect
K595E | with no effect
K595A | with no effect

Variant | effect of a mutation on the interaction
E602K | with no effect
E602A | with no effect
V600A | with no effect
V600E | with no effect
V600K | with no effect
P587K | with no effect
P587A | with no effect
P587E | with no effect
Q569E | with no effect
Q569A | with no effect
Q569K | with no effect
R594K | with no effect
R594E | with no effect
R594A | with no effect
V588E | with no effect
V588A | with no effect
V588K | with no effect
F590E | with no effect
F590A | with no effect
F590K | with no effect
I577K | with no effect
I577E | with no effect
I577A | with no effect
D562K | with no effect
D562A | disrupting interaction strength

Variant | effect of a mutation on the interaction
D562V | disrupting interaction strength
D562E | with no effect
V598A | with no effect
V598E | with no effect
V598K | with no effect
S573A | with no effect
S573K | with no effect
S573E | with no effect
V596K | with no effect
V596E | with no effect
V596A | with no effect
Q581E | with no effect
Q581K | with no effect
Q581A | with no effect
F586A | with no effect
F586E | with no effect
F586K | with no effect
G565E | with no effect
G565K | with no effect
G565A | with no effect
D566E | with no effect
D566A | with no effect
D566K | with no effect
